This assay addresses natural VIF protein on the surface of T1 human cells infected with HIV-1 strain IIIB (HIV-1 strain IIIB) (UniProt P69723). In words: flow cytometry on HIV-1 IIIB infected T1 cells, 1:100. On the technique in general: A flow cytometer gives signals particle by particle.

This note sets out measurements from US20150158933A1.

Sequence of UniProt P69723 (P69723 whole entry): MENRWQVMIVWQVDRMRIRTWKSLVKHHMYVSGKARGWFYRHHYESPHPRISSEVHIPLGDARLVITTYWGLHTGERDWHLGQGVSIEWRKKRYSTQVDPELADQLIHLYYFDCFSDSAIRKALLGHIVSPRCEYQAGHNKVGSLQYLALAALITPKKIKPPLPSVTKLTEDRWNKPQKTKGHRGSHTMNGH

As for Isotype control (antibody), the MFI stood at 971.
